Source: patent publication US20020022718A1, “Genes identified as required for proliferation of E. coli” (priority 1999, published 2002)

Test system: Klebsiella pneumoniae
Assay: Growth inhibition by induced E. coli antisense RNA in Klebsiella pneumoniae
Assay type: cell-based
Design: key: +: a positive in Table V below means that at least 10 fold more cells were required to observe a colony on the induced plate than on the non-induced plate; −: If there was no effect of antisense RNA expression in a microorganism, the clone is minus in Table V below
Settings: antisense RNA expression induced with IPTG, serial dilution plating
In short: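 Overnight cultures were diluted 10^2 to 10^8-fold and spotted on selective plates with or without 1 mM IPTG to induce antisense RNA from transformed E. coli sequences. After overnight growth, induced vs uninduced was scored as the log difference in the highest dilution giving colonies. No effect scores 0 (or minus); a positive score means at least 10-fold more cells were needed.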

Molecule | Sensitivity of K. pneumoniae to antisense nucleic acid (growth inhibition, induced vs. uninduced)
EcXA164: antisense clone insert to E. coli glpC (nucleic acid, listed as Escherichia coli) antisense: TGTCGACATTCAGCACTTCCGGGTATTCGTCGCGCAGGGCAAATGTACAGGTTGAGGAGGTG | −
EcXA166: antisense clone insert to E. coli yihE (nucleic acid, listed as Escherichia coli) antisense: AAACGCATGGCGCGTAAAGGTTCAATCAGTCCGATTTCAGCGGTGTCGAACTCGCTAAATTCTTCA | −
EcXA174: antisense clone insert to E. coli endA (nucleic acid, listed as Escherichia coli) antisense: GCCNGGCGGGAACCGACATGTTCCCACTCTACGCCGGCTGGCGCGGTTTTCATTTTTGCGCACCTGATAGCCGCACGATTGCAGATCAACAACGCCTTTTTTG | −
EcXA158: antisense clone insert to E. coli b2519 (nucleic acid, listed as Escherichia coli) antisense: GCTGGTGCCCGTTTTCCATGCCAGTGGGGCGACGCGCGGCAAGGCACTATCCGGCAAGGGTTGCGCTTCATCAGCCATAATCCGGCGAATGATCCACGCCGCCCCCGACGACATTAAAGGCCGTTCAAGCAGCGGATCGTCAGGCTGTAAGCGCAATTTGCCTGCCTTGCCGTGGCGAGCAAACGCGGTA | −
EcXA176: antisense clone insert to E. coli yjdH (nucleic acid, listed as Escherichia coli) antisense: TAGTTATTGGCTGTTTTGAGAATGTAATCTTCCAACTGCTTATAACTCTTCAGATGCAATAATCCGAGAATCACATGCAATTTATTCATAAATTCGTGGGATCGTTCACGAAGTGCGTCAGCATAGTTGACCAGACCGTCGAGTCGCTGCATCAGTTTACGTA | −
EcXA175: antisense clone insert to E. coli pykA (nucleic acid, listed as Escherichia coli) antisense: TAGCTTCTTCCACATTGTCGAACTGAACGTCCAGACGGTGTTTAGAAACGTTGATGCTCGGGATTTTTTCCGCACCCAGGCAAACGCGCGCCATGGCTGCAACGGTTTCTGACGGATACTG | −
EcXA162: antisense clone insert to E. coli yjgV (nucleic acid, listed as Escherichia coli) antisense: AAAGGTTCGGCAAAAGCCATAACCTTTTCGTCAGCTTTGGCCGGATAAGGGACACATTGCGACGTTTCGACCATTTTATAACGGGTAAAACCACCATCAACATGAGGGAAATACATGGCACTGCCAAAAAAACGCATATCTGTACACTGATTCTCGTTATGTTCAATGCAGTATTTGCAGTGACCGCACGGTTTAGACGGATTAATGGCTACCGTTTGCCCTTCATGTAATTCTGA | −
EcXA179: antisense clone insert to E. coli valV (nucleic acid, listed as Escherichia coli) antisense: CGAACCAACGACCCCCACCATGTCAAGGTGGTGCTCTAACCAACTGAGCTATGAACGCAACGTTGTAGGTGACAACGGGGACGAATATTAGCGGCAGAGTGGGAAGGTGGCAAGAGGCAAAACGTAATTTTCTGCGCTATTTCGACCGTTTGCAGAGCTTTTAAGCAAATTGGCTATATTTTGTTGATTTGCAAGGGTGATTTTTATTCAGGATCGCATTTACATCTGATACAACCC | −
EcXA159: antisense clone insert to E. coli b0482 (nucleic acid, listed as Escherichia coli) antisense: AAAAAATGAAATTCCTCTTTGACGGGCCAATAGCGATATTGGCCATTTTTTTAGCGCAACATTTGCGGCAAATTCCCTTCTCCATACAGGTGTAGTGCACCGACCGCGACCACATATCGCCCCGGCGGCATGGCGCGTAATTTATCCCGCCAGGCGAGATTTCGCTGATGCATCAGCACATCGTACAGCGACTGACTGAACGTATTGGGCAGCGTTATATCATTATTTTGCGGCGGTGCATTCAGCCACCAGCTCATCATTTGTTGCAGCAACCGTGCGTTGGTATGCCAGTGGGTCAGCGTATCGTCCAGCAGCGCCAGTCCTTTGTCAGGGAGCTGGAGCAACATGGCAATCTGGTTTTCAGCCCCTTCCAGTTCAATCACGGGTTTATGTTGTTGCTTC | −
EcXA169: antisense clone insert to E. coli rpsE (nucleic acid, listed as Escherichia coli) antisense: AGAGCTGTGAAGGAGAAAATACGACCACCTTTAACGGTTTTAGATACGCGGTTTACCGCGATCAGCTTTTCCTGCAGTTCGCCAGCTTGTTTTTCGATGTGAGCCATCTTACACCTCT | −
EcXA165: antisense clone insert to E. coli ybeJ (nucleic acid, listed as Escherichia coli) antisense: ACTTATCAAACCATTTTTCCGCTTCACCGGAGGTCTGCACCTGAGCGATGGTGTCATCCATCAGCTTTTTGA | −
EcXA168: antisense clone insert to E. coli b1721 (nucleic acid, listed as Escherichia coli) antisense: GAGGAACCGTGTGACACACAAAGGGTGATTATTTTCCATTGCGGCGTATAATCCTGGCTCACCATCATGTATTTTCATGGCTAAAATACTCATCACCAGTTTTTTGTTTAAAAGCTCTTGTGCTATTGGAGTGGTTAATGCATTCAGAAAGATATCGATTATTTCATCGAATCCATACAACATGGAGATATAAAGTCCAGGTGTTTCGTT | −
EcXA163: antisense clone insert to E. coli yidC (nucleic acid, listed as Escherichia coli) antisense: GAAGAGATGTTCAGGTTTTCGTTATCGGCAATGGTATCGAACTTGTATTTCTCATACTTCTCGTCAGGCGTGGAGTACGCCGCGCCACGGAA | −
EcXA171: antisense clone insert to E. coli b0876 (nucleic acid, listed as Escherichia coli) antisense: AGCGCCGGTAACGCCCGTTAAATGTTCTCGTTCGGCTTCCCGATCGTTATTCAACAGGCTGCGTACCGTAGCGGCATATTTCTTCCCTGCTTCATCGCCATC | −
EcXA167: antisense clone insert to E. coli gatB (nucleic acid, listed as Escherichia coli, misc_feature (1)...(143): n = A,T,C or G, antisense clone insert to E. coli gatB) antisense: TATAGGGGNCTATTTCATTAACCCGACACTGGATTAATTCAACAGGAATATTATGATTCTGACACAACTCTTTAATTTCTTCCGCCGCCATCGTAGAGGTCGCAACCGCGCCTCCGCAAGCGACAATAATCTTGCGTTTCATA | −
EcXA173: antisense clone insert to E. coli yhhJ (nucleic acid, listed as Escherichia coli) antisense: GCCACGCCCAGCATAAACAGCGGGATCGAGCCTTCAATCGGTACGCCCAGTACACCTTTCACCATCAGCACCAGCGATAATCC | −
EcXA178: antisense clone insert to E. coli rpsT (nucleic acid, listed as Escherichia coli) antisense: CTGGAGATTGAGTAGATATTCTTGTTCAGAATGTATCAGCCCGATGGTTCTACGATTCTTAAGCCACGAAGAGTTCAGATAGTACAACGGCATGTCTCTTTTGACTATCTGGCAACCCGGCAGTGTGTTCTCTCACGCATCACAAAAGCAGCAGGCATAAAAAAACCCGCTTGCGCGGCTTTTTCACAAAGCTTCAGCAAATTGGCGATTAAGCCAGTTTGTTGATCTGTGCAGTCAGGTTAGCCTTATGACGTGCAGCTTTGTTTTTGTGGATCAAACCTTTAGCAGCCTGACGGTCCACGATCGGTTGCATTTCGTT | −
